Measurements as given in publication PMC11740425.

Key:
[1] = target: TCR1 with the T30Q mutation in CDR-1A (human | mouse)
[2] = target: TCR1 with the T30Q mutation in CDR-1A (human | mouse); assay: flow cytometry on cells

KRAS^G12D peptide presented by HLA-A*11:01 (KRAS^G12D tetramer) (from UniProt P61769 21-119; P01116 7-16) (peptide-MHC)
EC50 (functional avidity) of TCR Jurkat cells for KRAS^G12D peptide [1]: 53 nM | pMut-HLA binding positivity rate [2]: 60%
